According to patent US20240076398A1:

How the values were obtained:
[1] = target: human C5aR1 (complement component 5a receptor 1) (human) (UniProt P21730); assay: flow cytometry, Expi293 with transient human C5aR1, secondary antibody alone; mock 3,052
[2] = target: human C5aR1 (complement component 5a receptor 1) (human) (UniProt P21730); assay: flow cytometry, Expi293 with transient human C5aR1, 100 nM antibody; mock 3,722

Sequence of human C5aR1 (complement component 5a receptor 1) (human) (P21730 other isoform, or with tags, fused parts or gaps): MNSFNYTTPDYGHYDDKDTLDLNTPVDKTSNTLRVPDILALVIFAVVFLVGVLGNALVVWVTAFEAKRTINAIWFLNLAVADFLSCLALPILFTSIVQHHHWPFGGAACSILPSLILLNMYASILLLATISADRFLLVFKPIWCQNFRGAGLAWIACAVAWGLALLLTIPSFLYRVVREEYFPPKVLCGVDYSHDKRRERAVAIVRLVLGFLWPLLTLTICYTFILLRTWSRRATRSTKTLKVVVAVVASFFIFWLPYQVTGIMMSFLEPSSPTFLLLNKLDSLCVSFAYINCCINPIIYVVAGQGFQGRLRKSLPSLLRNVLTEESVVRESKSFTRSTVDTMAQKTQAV

geometric mean fluorescent intensity [1] | geometric mean fluorescent intensity [2] | Substance
5350 |  | Anti-human-APC secondary antibody alone
 | 6550 | Isotype control (Table 6) (antibody)
